Assay results taken from US20190241648A1 (STATEN BIOTECHNOLOGY B V, published 2019).
Ends that are not written are not given here.

Key:
Experiment in all cases: cyclic peptide substitution array
ApoC3 peptide F64C = target: T1, ApoC3 peptide F64C (human, cyclic (thioether))
T1 peptide: DKFSECWDLDPEV
In short: (§1)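 Peptide microarrays incubated with antibody samples, then stained with goat anti-human IgG (Fc) DyLight680 and anti-HA DyLight800 control antibodies, scanned at intensity 7/7 (red/green). Secondary-only pre-stain checked background binding; framing HA peptides served as quality control; substitution effects read as changes in spot intensity.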

ApoC3 peptide E63D = target: T2, ApoC3 peptide E63D (human, not fully specified; cyclic (thioether))
T2 peptide: DKFSDFWDLDPEV
In short: as §1

ApoC3 peptide D66E = target: T3, ApoC3 peptide D66E (human, not fully specified; cyclic (thioether))
T3 peptide: DKFSEFWELDPEV
In short: as §1

ApoC3 peptide E63F = target: T4, ApoC3 peptide E63F (human, not fully specified; cyclic (thioether))
T4 peptide: DKFSFFWDLDPEV
In short: as §1

ApoC3 peptide P69F = target: T5, ApoC3 peptide P69F (human, not fully specified; cyclic (thioether))
T5 peptide: DKFSEFWDLDFEV
In short: as §1

ApoC3 peptide S62H = target: T6, ApoC3 peptide S62H (human, thioether (positions not given here); also: cyclic (thioether), ring places not given here)
T6 peptide: DKFHEFWDLDPEV
In short: as §1

ApoC3 peptide D66I = target: T7, ApoC3 peptide D66I (human, not fully specified; cyclic (thioether))
T7 peptide: DKFSEFWILDPEV
In short: as §1

ApoC3 peptide D59K = target: T8, ApoC3 peptide D59K (human, thioether (positions not given here); not fully specified (C-terminus, bridges))
T8 peptide: KKFSEFWDLDPEV
In short: as §1

ApoC3 peptide D66K = target: T9, ApoC3 peptide D66K (human, not fully specified; cyclic (thioether))
T9 peptide: DKFSEFWKLDPEV
In short: as §1

ApoC3 peptide W65L = target: T10, ApoC3 peptide W65L (human, cyclic (thioether))
T10 peptide: DKFSEFLDLDPEV
In short: as §1

ApoC3 peptide S62M = target: T11, ApoC3 peptide S62M (human, thioether (positions not given here); also: cyclic (thioether), ring places not given here)
T11 peptide: DKFMEFWDLDPEV
In short: as §1

ApoC3 peptide F64M = target: T12, ApoC3 peptide F64M (human, thioether (positions not given here); not fully specified (bridges); also: cyclic (thioether), positions not given here)
T12 peptide: DKFSEMWDLDPEV
In short: as §1

ApoC3 peptide V71M = target: T13, ApoC3 peptide V71M (human, thioether (positions not given here); also: cyclic (thioether), ring places not given here)
T13 peptide: DKFSEFWDLDPEM
In short: as §1

ApoC3 peptide D66N = target: T14, ApoC3 peptide D66N (human, not fully specified; cyclic (thioether))
T14 peptide: DKFSEFWNLDPEV
In short: as §1

ApoC3 peptide W65P = target: T15, ApoC3 peptide W65P (human, cyclic (thioether))
T15 peptide: DKFSEFPDLDPEV
In short: as §1

ApoC3 peptide D59Q = target: T16, ApoC3 peptide D59Q (human, thioether (positions not given here); not fully specified (C-terminus, bridges); also: cyclised via thioether between a C-terminal Cys and a modified N-terminus, the Cys and the N-terminal …)
T16 peptide: QKFSEFWDLDPEV
In short: as §1

ApoC3 peptide D66Q = target: T17, ApoC3 peptide D66Q (human, not fully specified; cyclic (thioether))
T17 peptide: DKFSEFWQLDPEV
In short: as §1

ApoC3 peptide D68Q = target: T18, ApoC3 peptide D68Q (human, cyclic (thioether))
T18 peptide: DKFSEFWDLQPEV
In short: as §1

ApoC3 peptide E63R = target: T19, ApoC3 peptide E63R (human, cyclic (thioether))
T19 peptide: DKFSRFWDLDPEV
In short: as §1

ApoC3 peptide V71R = target: T20, ApoC3 peptide V71R (human, not fully specified; cyclic (thioether))
T20 peptide: DKFSEFWDLDPER
In short: as §1

ApoC3 peptide F64S = target: T21, ApoC3 peptide F64S (human, thioether (positions not given here); not fully specified (bridges); also: cyclic (thioether), positions not given here)
T21 peptide: DKFSESWDLDPEV
In short: as §1

ApoC3 peptide D66S = target: T22, ApoC3 peptide D66S (human, not fully specified; cyclic (thioether))
T22 peptide: DKFSEFWSLDPEV
In short: as §1

ApoC3 peptide P69S = target: T23, ApoC3 peptide P69S (human, not fully specified; cyclic (thioether))
T23 peptide: DKFSEFWDLDSEV
In short: as §1

ApoC3 peptide D59T = target: T24, ApoC3 peptide D59T (human, thioether (positions not given here); not fully specified (C-terminus, bridges); also: cyclised via thioether between a C-terminal Cys and a modified N-terminus, the Cys and the N-terminal …)
T24 peptide: TKFSEFWDLDPEV
In short: as §1

ApoC3 peptide K60T = target: T25, ApoC3 peptide K60T (human, cyclic (thioether))
T25 peptide: DTFSEFWDLDPEV
In short: as §1

ApoC3 peptide F64W = target: T26, ApoC3 peptide F64W (human, thioether (positions not given here); not fully specified (bridges); also: cyclic (thioether), positions not given here)
T26 peptide: DKFSEWWDLDPEV
In short: as §1

ApoC3 peptide D68W = target: T27, ApoC3 peptide D68W (human, cyclic (thioether))
T27 peptide: DKFSEFWDLWPEV
In short: as §1

ApoC3 peptide V71W = target: T28, ApoC3 peptide V71W (human, not fully specified; cyclic (thioether))
T28 peptide: DKFSEFWDLDPEW
In short: as §1

ApoC3 peptide F64Y = target: T29, ApoC3 peptide F64Y (human, thioether (positions not given here); not fully specified (bridges); also: cyclic (thioether), positions not given here)
T29 peptide: DKFSEYWDLDPEV
In short: as §1

ApoC3 peptide L67Y = target: T30, ApoC3 peptide L67Y (human, thioether (positions not given here); not fully specified (bridges); also: thioether between a C-terminal Cys side chain and a modified N-terminus, the Cys is not in the chain)
T30 peptide: DKFSEFWDYDPEV
In short: as §1

% of binding to wild-type peptide (ApoC3 peptide F64C): 51%
% of binding to wild-type peptide (ApoC3 peptide E63D): 29.9%
% of binding to wild-type peptide (ApoC3 peptide D66E): 2.16%
% of binding to wild-type peptide (ApoC3 peptide E63F): 57.1%
% of binding to wild-type peptide (ApoC3 peptide P69F): 11.6%
% of binding to wild-type peptide (ApoC3 peptide S62H): 2.89%
% of binding to wild-type peptide (ApoC3 peptide D66I): 0%
% of binding to wild-type peptide (ApoC3 peptide D59K): 30.6%
% of binding to wild-type peptide (ApoC3 peptide D66K): 0%
% of binding to wild-type peptide (ApoC3 peptide W65L): 0%
% of binding to wild-type peptide (ApoC3 peptide S62M): 0%
% of binding to wild-type peptide (ApoC3 peptide F64M): 132%
% of binding to wild-type peptide (ApoC3 peptide V71M): 138%
% of binding to wild-type peptide (ApoC3 peptide D66N): 0%
% of binding to wild-type peptide (ApoC3 peptide W65P): 0%
% of binding to wild-type peptide (ApoC3 peptide D59Q): 68.3%
% of binding to wild-type peptide (ApoC3 peptide D66Q): 0%
% of binding to wild-type peptide (ApoC3 peptide D68Q): 0.96%
% of binding to wild-type peptide (ApoC3 peptide E63R): 2.19%
% of binding to wild-type peptide (ApoC3 peptide V71R): 57.3%
% of binding to wild-type peptide (ApoC3 peptide F64S): 367%
% of binding to wild-type peptide (ApoC3 peptide D66S): 0%
% of binding to wild-type peptide (ApoC3 peptide P69S): 86.9%
% of binding to wild-type peptide (ApoC3 peptide D59T): 94.9%
% of binding to wild-type peptide (ApoC3 peptide K60T): 177%
% of binding to wild-type peptide (ApoC3 peptide F64W): 88.5%
% of binding to wild-type peptide (ApoC3 peptide D68W): 0%
% of binding to wild-type peptide (ApoC3 peptide V71W): 68.7%
% of binding to wild-type peptide (ApoC3 peptide F64Y): 118%
% of binding to wild-type peptide (ApoC3 peptide L67Y): 0.02%
B1: Llama antibody 5E5 (antibody, V domains shown)
VH: QLQLVESGGGLVQPGGSLRLSCAASGFTFGTYSMRWVRQVPRKALEWVSSISTDGGGTAYRDSVKGRFTISRDNAKNTLYLQMNNLKPEDTAIYYCVIAGYSDWGQGTQVTVSS
VL: ATMLTQSPGSLSVVPGESASISCKTSQGLVHSDGKTYFYWFLQKPGQSPQQLIYQVSNRASGVPDRFTGSGSGTDFTLKISGVKAEDAGVYYCAQGTYYPHTFGSGTRLEIK
notes: detected with goat anti-human IgG (Fc); also called mAb 5E5
